Assay results reported in the RNAGym collection of RNA variant scans (doi:10.1073/pnas.2313332121).

B1: TPR t1 (parent)
chain: GACCAAUCUGCCCUCAGAGCUCGAGAACAUCUUCGGAUGCAGAGGAGGCAGGCUUCGGUGGCGCGAUAGCGCCAACGUCCUCAACCUCCAAUGCAUCCCACCACAUGAUGAUGCCUGAAGAGCCUUGGUUUUUUG

Variants of: B1
Assay: polymerase ribozyme fitness, log enrichment relative to wild type (log ratio); higher = more active; in vitro selection for triplet polymerase activity
Outline: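 Mutant libraries of both subunits of a heterodimeric triplet polymerase ribozyme were PCR-built, transcribed, and selected once in triplicate, with frozen incubation at −7 °C and capture of gel-excised extended constructs on streptavidin beads before RT-PCR. Illumina sequencing of input and output libraries was filtered to genotypes with ≥10 input reads and ≥1 read per output. Fitness is the logarithm of genotype enrichment over wild-type enrichment, using inverse-variance-weighted replicate averages. The logarithm is base 2.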

| Variant | polymerase ribozyme fitness (log ratio) |
| --- | --- |
| GACCAAUCUGCCCUCAGAGCUCGAGAACAUCUUCGGAUGCAGAGGAGACAGGCUUCAGUGGCGCGAUAUCGCCAACGUCCUCAACCUCCAAUGCAUCCCACCACAUGAUGAUGCCUGAAGAGCCUUGGUUUUUUG [G48A G57A G69U] | -0.155 |
| GACCAAUCUGCCCUCAGAGCUCGAGAACAUCUUCGGAUGCAGAGGAGACAGGCUUCGGUGGCGCGAUAGCGCCAACGUCCUCAACCUCCAAUGCAUACCACCACAUGAUGACGCCUGAAGAGCCUUGGUUUUUUG [G48A C97A U112C] | -2.48 |
| GACCAAUCUGCCCUCAGAGCUCGAGAACAUCUUCGGAUGCAGAGGAGACAGGCUUCGGUGGCGCGAUAGCGCCAACGUACUCAACCUCCAAUGCAUUCCACCACAUGAUGAUGCCUGAAGAGCCUUGGUUUUUUG [G48A C79A C97U] | -2.68 |
| GACCAAUCUGCCCUCAGAGCUCGAGAACAUCUUCGGAUGCAGAGGAGACAGGCUUCGGUUGCGCGAUAGCGCCAACGUCCUCAACCUCCAAUGCAUCCCACCACAUGAUGAUGCUUGAAGAGCCUUGGUUUUUUG [G48A G60U C115U] | -0.887 |
| GACCAAUCUGCCCUCAGAGCUCGAGAACAUCUUCGGAUGCAGAGGAGACAGGCUUCGGUGGCGCGAUAGCGCCAACGUCCUCAACCUCGAAUGCGUCCCACCACAUGAUGAUGCCUGAAGAGCCUUGGUUUUUUG [G48A C89G A95G] | -3.06 |
| GACCAAUCUGCCCUCAGAGCUCGAGAACAUCUUCGGAUGCAGAGGAGACAGGCUUCGGUGGCGCGAUAGUUCCAACGUCCUCAACCUCCAAUGCAUCCCACCACAUGAUGAUGCCUGAAGAGCCUUGGUUUUUUG [G48A C70U G71U] | -0.828 |
| GACCAAUCUGCCCUCAGAGCUCGAGAACAUCUUCGGAUGCAGAGGAGACAGUCUUCGGUGGCGCGAUAGCGCCAACGUCGUCAACCUCCAAUGCAUCCCACCACAUGAUGAUGCCUGAAGAGCCUUGGUUUUUUG [G48A G52U C80G] | -5.98 |
| GACCAAUCUGCCCUCAGAGCUCGAGAACAUCUUCGGAUGCAGAGGAGACAAGCUUCGGUGGCGCGAUAGCACCAACGUACUCAUCCUCCAAUGCAUCCCACCACAUGAUGAUGCCUGAAGAGCCUUGAGUUUUUG [G48A G51A G71A C79A A84U G128A U129G] | -6.49 |
| GACCAAUCUGCCCUCAGAGCUCGAGAACAUCUUCGGAUGCAGAGGAGACAGGCUUCGGUGGGGCGAUAGCGCCAACGUCCUCAACCUCCAAUGCAUCCCACCACAUGAUGAUGCCUGAAGAGCCUUGGUUUUUUG [G48A C62G] | -2.29 |
| GACCAAUCUGCCCUCAGAGCUCGAGAACAUCUUCGGAUGCAGAGGAGACAGGCUUCGGUGACGCGAUAGCGCCAACGUCCUCAACCUCCAAUGCAUCCCACCCUAUGAUGAUGCCUGAAGAGCCUUGGUUUUUUG [G48A G61A A103C C104U] | -5.34 |
| GACCAAUCUGCCCUCAGAGCUCGAGAACAUCUUCGGAUGCAGAGGAGACAGGCUUCGGUGGCGCGAUAGCGCCAACGUCCUCAACCUACAAUGCAUCCCACCACAUGAUGAUUCCUGAAAAGCCUUGGUUUUUUG [G48A C88A G113U G120A] | -4.63 |
| GACCAAUCUGCCCUCAGAGCUCGAGAACAUCUUCGGAUGCAGAGGAGACAGGCUUCGGUGGCGCGAUAGCGCCAACGUCCUCAACCUCCAAUGCAUCCCACCACAUGAUGAUGCCUGAAGAGCGUUGGUUUUUUG [G48A C124G] | 0.442 |
| GACCAAUCUGCCCUCAGAGCUCGAGAACAUCUUCGGAUGCAGAGGAGACAGGCUUCUGUGGCGCGAUAGCGCCAACGUCCUCAACCUCCAAUGCCUCCCACCACAUGAUGAAGACUGAAGAGCCUUGGUUUUUUG [G48A G57U A95C U112A C114A] | -3.34 |
| GACCAAUCUGCCCUCAGAGCUCGAGAACAUCUUCGGAUGCAGAGGAGACAGGCUUCGGUGGCGCGAUAGCGCCAACGUCCUCAAGCUCCAAUGCAUCCCACCACAUGAUGAUGCUUGAAGAGCCUUGGUUUUUUG [G48A C85G C115U] | -2.75 |
| GACCAAUCUGCCCUCAGAGCUCGAGAACAUCUUCGGAUGCAGAGGAGACAGGCUUCGGUUGCGCGAUAGCGCCAACGUCCUCAACCUCCCAUGCAUCCCACCACAUGAUGAUGACUGAAGAGCCUUGGUUUUUUG [G48A G60U A90C C114A] | -2.49 |
| GACCAAUCUGCCCUCAGAGCUCGAGAACAUCUUCGGAUGCAGAGGAGACAGGCUUCGGUGGCGUGAUAGCGCCAACGUCCUCAACCUCCAAUGCUUCCCACCACAUGAUCAUGCAUGAAGAGCCUUGGUUUUUUG [G48A C64U A95U G110C C115A] | -5.72 |
| GACCAAUCUGCCCUCAGAGCUCGAGAACAUCUUCGGAUGCAGAGGAGACAGGCUUCGGUGGAGCGAUAGCGCCAACGUCCUCAACCUCCAAUGCAACCCACCACAUGAUGAUGCCUGAAGAGCCUUGGUUUUUUG [G48A C62A U96A] | -2.62 |
| GACCAAUCUGCCCUCAGAGCUCGAGAACAUCUUCGGAUGCAGAGGAGACAGGCUUCGGUGGCGCGAUAGCGCCAACGUCCUCAACCUUCAAUGCAUCCCACCACAUGAUGAUGCCUGAAGAGCCUUGGUUUUUUG [G48A C88U] | -0.667 |
| GACCAAUCUGCCCUCAGAGCUCGAGAACAUCUUCGGAUGCAGAGGAGACAGGCUUGGGUGGCGCGAUAGCGCCAACGUCCUCAACCUCCAAUUCAUCCCACCACAUGAUGAUGCCUGAAGAGCCUUGGUUUUUUG [G48A C56G G93U] | -2.28 |
| GACCAAUCUGCCCUCAGAGCUCGAGAACAUCUUCGGAUGCAGAGGAGACAGGCUUCGGUGGCGCGAUAGCGCCAACGUUCUCAACCUCCAAGGCAUCCCACCACAUGAUGAUGCCCGAACAGCCUUGGUUUUUUG [G48A C79U U92G U116C G120C] | -5.27 |
| GACCAAUCUGCCCUCAGAGCUCGAGAACAUCUUCGGAUGCAGAGGAGACAGGCUUCGGUGGCGCGAUAGCGCCAACGUCGUCAACCUCCAAUGCCUCCCACCACAUGAGGAUGCCUGAAGAGCCUUGGUUUUUUG [G48A C80G A95C U109G] | -7.79 |
